According to patent US20220010021A1 (Sanofi, published 2022):
Residue numbers refer to the chain shown, from its start. Names and notes keep the numbering of the source.

Legend:
[1] = molecular target: human FGFR1c/KLB receptor complex on iLite FGF21 Assay Ready Cells (human, UniProt P11362 22-822; Q86Z14 1-1044); assay: cell-based or functional assay
[2] = molecular target: T1, human beta-Klotho (KLB) (human, UniProt Q86Z14 53-997); assay: BLI off-rate screening, mAb captured, KLB analyte;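 also: Off-rate taken from the dissociation phase, biosensors held in D-PBS with 0.1% BSA over 1800 s, antibody supernatants diluted to 25 µg/mL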
T1 construct: bought protein, used as analyte in the off-rate screening; also called human KLB; β-Klotho
T1 sequence (looked up): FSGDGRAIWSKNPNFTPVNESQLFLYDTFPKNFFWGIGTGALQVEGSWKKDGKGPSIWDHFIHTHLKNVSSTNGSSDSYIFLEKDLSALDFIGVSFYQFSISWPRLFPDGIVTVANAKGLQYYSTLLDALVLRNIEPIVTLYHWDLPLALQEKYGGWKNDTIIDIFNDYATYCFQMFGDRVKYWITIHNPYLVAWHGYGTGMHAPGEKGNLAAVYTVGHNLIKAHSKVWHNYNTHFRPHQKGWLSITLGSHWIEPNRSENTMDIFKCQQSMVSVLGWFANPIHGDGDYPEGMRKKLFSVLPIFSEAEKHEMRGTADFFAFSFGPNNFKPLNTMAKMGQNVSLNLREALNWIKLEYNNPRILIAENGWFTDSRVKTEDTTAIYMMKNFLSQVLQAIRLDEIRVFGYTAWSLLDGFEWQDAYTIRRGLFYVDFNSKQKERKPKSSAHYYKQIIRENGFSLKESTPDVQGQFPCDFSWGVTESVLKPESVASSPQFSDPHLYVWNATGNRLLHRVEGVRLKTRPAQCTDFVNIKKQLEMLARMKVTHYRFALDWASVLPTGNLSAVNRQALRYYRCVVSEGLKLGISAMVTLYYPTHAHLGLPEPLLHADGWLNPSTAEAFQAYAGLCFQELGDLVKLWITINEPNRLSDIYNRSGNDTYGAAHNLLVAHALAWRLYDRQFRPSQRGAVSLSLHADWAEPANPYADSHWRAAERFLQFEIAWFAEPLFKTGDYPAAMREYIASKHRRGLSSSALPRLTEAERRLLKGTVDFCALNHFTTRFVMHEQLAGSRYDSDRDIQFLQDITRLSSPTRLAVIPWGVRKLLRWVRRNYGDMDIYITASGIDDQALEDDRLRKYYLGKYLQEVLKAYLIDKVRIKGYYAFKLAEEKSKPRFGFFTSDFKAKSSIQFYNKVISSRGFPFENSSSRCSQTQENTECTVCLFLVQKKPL

[3] = molecular target: cell surface receptor composed of FGFR1c and co-receptor beta-Klotho (KLB) (human, UniProt P11362 22-822; Q86Z14 1-1044); assay: cell-based or functional assay
Sequence of cell surface receptor composed of FGFR1c and co-receptor beta-Klotho (KLB) (P11362 22-822, chain 1 of 2): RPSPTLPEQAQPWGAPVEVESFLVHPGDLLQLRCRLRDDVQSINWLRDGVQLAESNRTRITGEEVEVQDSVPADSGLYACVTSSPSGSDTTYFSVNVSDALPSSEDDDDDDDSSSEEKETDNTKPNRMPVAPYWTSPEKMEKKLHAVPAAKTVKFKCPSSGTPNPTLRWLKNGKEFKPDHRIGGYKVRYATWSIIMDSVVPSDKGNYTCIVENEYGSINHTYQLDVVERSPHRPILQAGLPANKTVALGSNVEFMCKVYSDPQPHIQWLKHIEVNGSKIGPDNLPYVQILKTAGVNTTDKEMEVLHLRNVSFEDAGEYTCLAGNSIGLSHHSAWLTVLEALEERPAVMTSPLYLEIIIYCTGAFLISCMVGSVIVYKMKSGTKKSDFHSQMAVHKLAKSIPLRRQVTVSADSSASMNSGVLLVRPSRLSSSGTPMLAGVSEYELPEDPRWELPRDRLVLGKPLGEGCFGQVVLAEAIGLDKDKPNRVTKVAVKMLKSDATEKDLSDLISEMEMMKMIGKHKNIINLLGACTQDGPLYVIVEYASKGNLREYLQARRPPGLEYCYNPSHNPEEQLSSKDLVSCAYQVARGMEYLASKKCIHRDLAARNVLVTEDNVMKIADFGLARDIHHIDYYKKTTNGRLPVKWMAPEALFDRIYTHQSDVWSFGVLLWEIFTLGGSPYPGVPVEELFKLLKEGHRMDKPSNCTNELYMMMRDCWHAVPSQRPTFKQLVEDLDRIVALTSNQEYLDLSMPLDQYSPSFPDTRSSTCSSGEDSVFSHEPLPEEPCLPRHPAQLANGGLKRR
Sequence of cell surface receptor composed of FGFR1c and co-receptor beta-Klotho (KLB) (Q86Z14 whole entry, chain 2 of 2): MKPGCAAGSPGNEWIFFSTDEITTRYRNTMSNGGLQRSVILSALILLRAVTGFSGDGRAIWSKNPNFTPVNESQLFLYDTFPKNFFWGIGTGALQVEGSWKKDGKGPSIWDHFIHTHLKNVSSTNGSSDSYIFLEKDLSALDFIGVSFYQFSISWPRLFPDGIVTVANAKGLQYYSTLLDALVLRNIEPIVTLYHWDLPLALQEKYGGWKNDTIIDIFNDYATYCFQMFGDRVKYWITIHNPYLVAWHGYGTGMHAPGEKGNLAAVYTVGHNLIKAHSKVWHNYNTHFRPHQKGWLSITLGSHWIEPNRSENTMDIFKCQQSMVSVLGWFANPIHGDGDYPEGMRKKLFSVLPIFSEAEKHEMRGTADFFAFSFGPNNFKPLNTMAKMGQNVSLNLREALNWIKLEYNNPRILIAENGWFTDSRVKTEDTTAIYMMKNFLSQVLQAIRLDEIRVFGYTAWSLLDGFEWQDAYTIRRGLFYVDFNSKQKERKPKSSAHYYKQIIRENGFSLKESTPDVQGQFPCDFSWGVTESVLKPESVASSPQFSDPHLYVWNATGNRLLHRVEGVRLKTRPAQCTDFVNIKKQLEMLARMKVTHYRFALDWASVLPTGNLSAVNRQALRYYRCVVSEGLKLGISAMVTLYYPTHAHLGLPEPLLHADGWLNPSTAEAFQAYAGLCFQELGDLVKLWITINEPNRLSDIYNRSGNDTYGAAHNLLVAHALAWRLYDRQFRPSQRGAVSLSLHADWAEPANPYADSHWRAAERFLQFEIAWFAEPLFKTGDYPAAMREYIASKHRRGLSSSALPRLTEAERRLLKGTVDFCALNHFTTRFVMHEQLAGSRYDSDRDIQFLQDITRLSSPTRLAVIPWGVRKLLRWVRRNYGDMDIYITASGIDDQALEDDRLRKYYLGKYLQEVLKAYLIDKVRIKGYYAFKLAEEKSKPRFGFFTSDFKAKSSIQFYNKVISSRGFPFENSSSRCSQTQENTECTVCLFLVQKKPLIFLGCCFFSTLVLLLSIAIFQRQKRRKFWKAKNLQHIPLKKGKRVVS

[4] = molecular target: T2, human beta-Klotho (KLB) (human, UniProt Q86Z14 53-997); assay: BLI off-rate screen, supernatant;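 also: expression supernatants tested at 25 µg/mL, dissociation followed for 1800 s in D-PBS with 0.1% BSA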
T2 construct: Bought soluble protein; also called human KLB; ß-Klotho
T2 sequence (looked up): T1 sequence (looked up)
For Mean E max (%) in this document: reference of the scale not given here.
For Mean E max, Luciferase reporter gene assay in this document: reference of the scale not given here.

Sequence of human FGFR1c/KLB receptor complex on iLite FGF21 Assay Ready Cells (P11362 22-822, chain 1 of 2): as the sequence (P11362 22-822, chain 1 of 2) above
Sequence of human FGFR1c/KLB receptor complex on iLite FGF21 Assay Ready Cells (Q86Z14 whole entry, chain 2 of 2): as the sequence (Q86Z14 whole entry, chain 2 of 2) above

B1: 16H7 variant with light chain substitution P54R (antibody, V domains shown)
VH: not shown
VL: SYVLTQPPSVSVAPGQTARITCGGNNIGSESVHWYQQKPGQAPVLVVYDDSDRRSGIPERFSGSNSGNTATLTISRVEAGDEADYYCQVWDGNSDHVVFGGGTKLTVLG
[1]
  Mean E max (%): 104%
  Mean EC50: 0.111 nM
[2]
  koff: 0.00011 s⁻¹

B2: 16H7 variant with light chain substitution D52A (antibody, V domains shown)
VH: not shown
VL: B1 VL with D52A, R54P
[1]
  Mean E max (%): 101%
  Mean EC50: 0.163 nM
[2]
  koff: 4.8e-05 s⁻¹

B3: 16H7 variant with light chain substitution D52E (antibody, V domains shown)
VH: not shown
VL: B1 VL with D52E, R54P
[1]
  Mean E max (%): 123%
  Mean EC50: 0.114 nM
[2]
  koff: 1e-07 s⁻¹

B4: 16H7 variant with light chain substitution D52F (antibody, V domains shown)
VH: not shown
VL: B1 VL with D52F, R54P
[1]
  Mean E max (%): 102%
  Mean EC50: 0.105 nM
[2]
  koff: 7.9e-06 s⁻¹

B5: 16H7 variant with light chain substitution D52G (antibody, V domains shown)
VH: not shown
VL: B1 VL with D52G, R54P
[1]
  Mean E max (%): 109%
  Mean EC50: 0.125 nM
[2]
  koff: 3.7e-05 s⁻¹

B6: 16H7 variant with light chain substitution D52H (antibody, V domains shown)
VH: not shown
VL: B1 VL with D52H, R54P
[1]
  Mean E max (%): 97%
  Mean EC50: 0.109 nM
[2]
  koff: 3.6e-05 s⁻¹

B7: 16H7 variant with light chain substitution D52I (antibody, V domains shown)
VH: not shown
VL: B1 VL with D52I, R54P
[1]
  Mean E max (%): 110%
  Mean EC50: 0.14 nM
[2]
  koff: 2.8e-05 s⁻¹

B8: 16H7 variant with light chain substitution D52K (antibody, V domains shown)
VH: not shown
VL: B1 VL with D52K, R54P
[1]
  Mean E max (%): 101%
  Mean EC50: 0.117 nM
[2]
  koff: 9.2e-05 s⁻¹

B9: 16H7 variant with light chain substitution D52L (antibody, V domains shown)
VH: not shown
VL: B1 VL with D52L, R54P
[1]
  Mean E max (%): 106%
  Mean EC50: 0.107 nM
[2]
  koff: 5.7e-05 s⁻¹

B10: 16H7 variant with light chain substitution D52M (antibody, V domains shown)
VH: not shown
VL: B1 VL with D52M, R54P
[1]
  Mean E max (%): 105%
  Mean EC50: 0.144 nM
[2]
  koff: 2.4e-05 s⁻¹

B11: 16H7 variant with light chain substitution D52N (antibody, V domains shown)
VH: not shown
VL: B1 VL with D52N, R54P
[1]
  Mean E max (%): 115%
  Mean EC50: 0.124 nM
[2]
  koff: 6.9e-07 s⁻¹

B12: 16H7 variant with light chain substitution D52Q (antibody, V domains shown)
VH: not shown
VL: B1 VL with D52Q, R54P
[1]
  Mean E max (%): 101%
  Mean EC50: 0.107 nM
[2]
  koff: 2.7e-05 s⁻¹

B13: 16H7 variant with light chain substitution D52R (antibody, V domains shown)
VH: not shown
VL: B1 VL with D52R, R54P
[1]
  Mean E max (%): 96%
  Mean EC50: 0.091 nM
[2]
  koff: 2.9e-05 s⁻¹

B14: 16H7 variant with light chain substitution D52S (antibody, V domains shown)
VH: not shown
VL: B1 VL with D52S, R54P
[1]
  Mean E max (%): 108%
  Mean EC50: 0.098 nM
[2]
  koff: 4e-05 s⁻¹

B15: 16H7 variant with light chain substitution D52T (antibody, V domains shown)
VH: not shown
VL: B1 VL with D52T, R54P
[1]
  Mean E max (%): 100%
  Mean EC50: 0.109 nM
[2]
  koff: 1.8e-05 s⁻¹

B16: 16H7 variant with light chain substitution D52V (antibody, V domains shown)
VH: not shown
VL: B1 VL with D52V, R54P
[1]
  Mean E max (%): 114%
  Mean EC50: 0.125 nM
[2]
  koff: 6.9e-05 s⁻¹

B17: 16H7 variant with light chain substitution D52Y (antibody, V domains shown)
VH: not shown
VL: B1 VL with D52Y, R54P
[1]
  Mean E max (%): 102%
  Mean EC50: 0.11 nM
[2]
  koff: 9.1e-05 s⁻¹

B18: 16H7 variant with light chain substitution P54C (antibody, V domains shown)
VH: not shown
VL: B1 VL with R54C
[1]
  Mean E max (%): 100%
  Mean EC50: 0.116 nM
[2]
  koff: 0.00012 s⁻¹

B19: 16H7 variant with light chain substitution P54D (antibody, V domains shown)
VH: not shown
VL: B1 VL with R54D
[1]
  Mean E max (%): 96%
  Mean EC50: 0.115 nM
[2]
  koff: 0.00028 s⁻¹

B20: 16H7 light chain variant S29P (antibody, human IgG4 S228P, lambda, V domains shown)
VH: not shown
VL: B1 VL with S29P, R54P
[3]
  Mean E max, Luciferase reporter gene assay: 105%
  Mean EC50, Luciferase reporter gene assay: 0.174 nM
[4]
  koff: 5.2e-05 s⁻¹

B21: 16H7 light chain variant S29Q (antibody, human IgG4 S228P, lambda, V domains shown)
VH: not shown
VL: B1 VL with S29Q, R54P
[3]
  Mean E max, Luciferase reporter gene assay: 102%
  Mean EC50, Luciferase reporter gene assay: 0.114 nM
[4]
  koff: 2.2e-05 s⁻¹

B22: 16H7 light chain variant S29R (antibody, V domains shown)
VH: not shown
VL: B1 VL with S29R, R54P
notes: copies: 2 + 2
[3]
  Mean E max, Luciferase reporter gene assay: 105%
  Mean EC50, Luciferase reporter gene assay: 0.184 nM
[4]
  koff: 6.7e-06 s⁻¹

B23: 16H7 light chain variant S29T (antibody, human IgG4 S228P, lambda, V domains shown)
VH: not shown
VL: B1 VL with S29T, R54P
[3]
  Mean E max, Luciferase reporter gene assay: 102%
  Mean EC50, Luciferase reporter gene assay: 0.096 nM
[4]
  koff: 2.2e-05 s⁻¹

B24: 16H7 light chain variant S29V (antibody, human IgG4 S228P, lambda, V domains shown)
VH: not shown
VL: B1 VL with S29V, R54P
[3]
  Mean E max, Luciferase reporter gene assay: 107%
  Mean EC50, Luciferase reporter gene assay: 0.109 nM
[4]
  koff: 1.3e-05 s⁻¹

B25: 16H7 light chain variant S31A (antibody, V domains shown)
VH: not shown
VL: B1 VL with S31A, R54P
notes: copies: 2 + 2
[3]
  Mean E max, Luciferase reporter gene assay: 100%
  Mean EC50, Luciferase reporter gene assay: 0.099 nM
[4]
  koff: 5.8e-05 s⁻¹

B26: 16H7 light chain variant S31C (antibody, human IgG4 S228P, lambda, V domains shown)
VH: not shown
VL: B1 VL with S31C, R54P
[3]
  Mean E max, Luciferase reporter gene assay: 100%
  Mean EC50, Luciferase reporter gene assay: 0.128 nM
[4]
  koff: 0.00017 s⁻¹

B27: 16H7 light chain variant S31D (antibody, human IgG4 S228P, lambda, V domains shown)
VH: not shown
VL: B1 VL with S31D, R54P
[3]
  Mean E max, Luciferase reporter gene assay: 99%
  Mean EC50, Luciferase reporter gene assay: 0.077 nM
[4]
  koff: 0.00019 s⁻¹

B28: 16H7 light chain variant S31E (antibody, V domains shown)
VH: not shown
VL: B1 VL with S31E, R54P
notes: copies: 2 + 2
[3]
  Mean E max, Luciferase reporter gene assay: 98%
  Mean EC50, Luciferase reporter gene assay: 0.111 nM
[4]
  koff: 0.00031 s⁻¹

B29: 16H7 light chain variant S31G (antibody, human IgG4 S228P, lambda, V domains shown)
VH: not shown
VL: B1 VL with S31G, R54P
[3]
  Mean E max, Luciferase reporter gene assay: 109%
  Mean EC50, Luciferase reporter gene assay: 0.111 nM
[4]
  koff: 5.5e-05 s⁻¹

B30: 16H7 light chain variant S31I (antibody, human IgG4 S228P, lambda, V domains shown)
VH: not shown
VL: B1 VL with S31I, R54P
[3]
  Mean E max, Luciferase reporter gene assay: 93%
  Mean EC50, Luciferase reporter gene assay: 0.089 nM
[4]
  koff: 0.00015 s⁻¹

B31: 16H7 light chain variant S31M (antibody, human IgG4 S228P, lambda, V domains shown)
VH: not shown
VL: B1 VL with S31M, R54P
[3]
  Mean E max, Luciferase reporter gene assay: 97%
  Mean EC50, Luciferase reporter gene assay: 0.151 nM
[4]
  koff: 0.0003 s⁻¹

B32: 16H7 light chain variant S31P (antibody, V domains shown)
VH: not shown
VL: B1 VL with S31P, R54P
notes: copies: 2 + 2
[3]
  Mean E max, Luciferase reporter gene assay: 103%
  Mean EC50, Luciferase reporter gene assay: 0.104 nM
[4]
  koff: 6.6e-05 s⁻¹

B33: 16H7 light chain variant S31R (antibody, human IgG4 S228P, lambda, V domains shown)
VH: not shown
VL: B1 VL with S31R, R54P
[3]
  Mean E max, Luciferase reporter gene assay: 102%
  Mean EC50, Luciferase reporter gene assay: 0.166 nM
[4]
  koff: 4.2e-05 s⁻¹

B34: 16H7 light chain variant S31T (antibody, V domains shown)
VH: not shown
VL: B1 VL with S31T, R54P
notes: copies: 2 + 2
[3]
  Mean E max, Luciferase reporter gene assay: 101%
  Mean EC50, Luciferase reporter gene assay: 0.108 nM
[4]
  koff: 0.00011 s⁻¹

B35: 16H7 light chain variant S31V (antibody, human IgG4 S228P, lambda, V domains shown)
VH: not shown
VL: B1 VL with S31V, R54P
[3]
  Mean E max, Luciferase reporter gene assay: 100%
  Mean EC50, Luciferase reporter gene assay: 0.106 nM
[4]
  koff: 6.6e-05 s⁻¹

B36: 16H7 light chain variant S31W (antibody, human IgG4 S228P, lambda, V domains shown)
VH: not shown
VL: B1 VL with S31W, R54P
[3]
  Mean E max, Luciferase reporter gene assay: 103%
  Mean EC50, Luciferase reporter gene assay: 0.178 nM
[4]
  koff: 0.00034 s⁻¹
